Source: the supplement of paper PMC5998384

What was measured:
HeLa Kyoto [1] = test: solubility in G1/S (NP-40 vs SDS abundance) (log2 ratio); higher = more soluble; conditions: cell cycle stage: G1/S
HeLa Kyoto [2] = test: melting temperature (median over replicates), in situ; higher = more thermally stable
HeLa Kyoto [3] = test: thermal stability score vs G1/S (z-score of summed log2 fold changes over temperatures); higher = more thermally stable than in G1/S
HeLa Kyoto [4] = test: solubility change mitosis vs G1/S (difference of NP-40 vs SDS log2 ratios) (log2 ratio difference); higher = more soluble in mitosis
[5] = cell cycle stage: early G1 (4.5 h after nocodazole release)
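For melting temperature (median over replicates), in situ in this document: HeLa Kyoto cells synchronized by double thymidine or nocodazole block, proteins quantified by TMT10plex mass spectrometry, three independent biological replicates.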
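For solubility change mitosis vs G1/S (difference of NP-40 vs SDS log2 ratios) in this document: synchronized HeLa Kyoto cells (double thymidine block for G1/S, nocodazole release for mitosis), protein amounts in NP-40 versus SDS lysates quantified by mass spectrometry, three biological replicates.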
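For solubility in G1/S (NP-40 vs SDS abundance) in this document: HeLa Kyoto cells arrested at G1/S by double thymidine block, proteins quantified by TMT10plex mass spectrometry in mild NP-40 versus SDS extracts, three biological replicates.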
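For thermal stability score vs G1/S (z-score of summed log2 fold changes over temperatures) in this document: synchronized HeLa Kyoto cells, proteins quantified by TMT10plex mass spectrometry, three biological replicates, mitosis taken 0.5 h after nocodazole release, G1/S directly after double thymidine block.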

Sequence	solubility in G1/S (log2) (HeLa Kyoto [1])	melting temperature (HeLa Kyoto [2]; cell cycle stage: G1/S)	melting temperature (HeLa Kyoto [2]; cell cycle stage: mitosis)	thermal stability score (HeLa Kyoto [3]; [5])	thermal stability score (HeLa Kyoto [3]; cell cycle stage: mitosis)	solubility change mitosis (log2) (HeLa Kyoto [4])
MARRGWRRAPLRRGVGSSPRARRLMRPLWLLLAVGVFDWAGASDGGGGEARAMDEEIVSEKQAEESHRQDSANLLIFILLLTLTILTIWLFKHRRARFLHETGLAMIYGLLVGLVLRYGIHVPSDVNNVTLSCEVQSSPTTLLVNVSGKFYEYMLKGEISSHELNNVQDNEMLRKVTFDPEVFFNILLPPIIFYAGYSLKRRHFFRNLGSILAYAFLGTAISCFVIGSIMYGCVTLMKVTGQLAGDFYFTDCLLFGAIVSATDPVTVLAIFHELQVDVELYALLFGESVLNDAVAIVLSSSIVAYQPAGDNSHTFDVTAMFKSIGIFLGIFSGSFAMGAATGVVTALVTKFTKLREFQLLETGLFFLMSWSTFLLAEAWGFTGVVAVLFCGITQAHYTYNNLSTESQHRTKQLFELLNFLAENFIFSYMGLTLFTFQNHVFNPTFVVGAFVAIFLGRAANIYPLSLLLNLGRRSKIGSNFQHMMMFAGLRGAMAFALAIRDTATYARQMMFSTTLLIVFFTVWVFGGGTTAMLSCLHIRVGVDSDQEHLGVPENERRTTKAESAWLFRMWYNFDHNYLKPLLTHSGPPLTTTLPACCGPIARCLTSPQAYENQEQLKDDDSDLILNDGDISLTYGDSTVNTEPATSSAPRRFMGNSSEDALDRELAFGDHELVIRGTRLVLPMDDSEPPLNLLDNTRHGPA [SLC9A6]	0.0823	56.1 °C	57.1 °C	-2.9	-3.5	-0.268
MARYEEVSVSGFEEFHRAVEQHNGKTIFAYFTGSKDAGGKSWCPDCVQAEPVVREGLKHISEGCVFIYCQVGEKPYWKDPNNDFRKNLKVTAVPTLLKYGTPQKLVESECLQANLVEMLFSED [TXNDC17]	0.304	50.8 °C	51.6 °C	4.94	2.6	-0.128
MASADSRRVADGGGAGGTFQPYLDTLRQELQQTDPTLLSVVVAVLAVLLTLVFWKLIRSRRSSQRAVLLVGLCDSGKTLLFVRLLTGLYRDTQTSITDSCAVYRVNNNRGNSLTLIDLPGHESLRLQFLERFKSSARAIVFVVDSAAFQREVKDVAEFLYQVLIDSMGLKNTPSFLIACNKQDIAMAKSAKLIQQQLEKELNTLRVTRSAAPSTLDSSSTAPAQLGKKGKEFEFSQLPLKVEFLECSAKGGRGDVGSADIQDLEKWLAKIA [SRPRB]	0.446	50.2 °C	50 °C	3.56	5.21	-0.0359
MASATAAAARRGLGRALPLFWRGYQTERGVYGYRPRKPESREPQGALERPPVDHGLARLVTVYCEHGHKAAKINPLFTGQALLENVPEIQALVQTLQGPFHTAGLLNMGKEEASLEEVLVYLNQIYCGQISIETSQLQSQDEKDWFAKRFEELQKETFTTEERKHLSKLMLESQEFDHFLATKFSTVKRYGGEGAESMMGFFHELLKMSAYSGITDVIIGMPHRGRLNLLTGLLQFPPELMFRKMRGLSEFPENFSATGDVLSHLTSSVDLYFGAHHPLHVTMLPNPSHLEAVNPVAVGKTRGRQQSRQDGDYSPDNSAQPGDRVICLQVHGDASFCGQGIVPETFTLSNLPHFRIGGSVHLIVNNQLGYTTPAERGRSSLYCSDIGKLVGCAIIHVNGDSPEEVVRATRLAFEYQRQFRKDVIIDLLCYRQWGHNELDEPFYTNPIMYKIIRARKSIPDTYAEHLIAGGLMTQEEVSEIKSSYYAKLNDHLNNMAHYRPPALNLQAHWQGLAQPEAQITTWSTGVPLDLLRFVGMKSVEVPRELQMHSHLLKTHVQSRMEKMMDGIKLDWATAEALALGSLLAQGFNVRLSGQDVGRGTFSQRHAIVVCQETDDTYIPLNHMDPNQKGFLEVSNSPLSEEAVLGFEYGMSIESPKLLPLWEAQFGDFFNGAQIIFDTFISGGEAKWLLQSGIVILLPHGYDGAGPDHSSCRIERFLQMCDSAEEGVDGDTVNMFVVHPTTPAQYFHLLRRQMVRNFRKPLIVASPKMLLRLPAAVSTLQEMAPGTTFNPVIGDSSVDPKKVKTLVFCSGKHFYSLVKQRESLGAKKHDFAIIRVEELCPFPLDSLQQEMSKYKHVKDHIWSQEEPQNMGPWSFVSPRFEKQLACKLRLVGRPPLPVPAVGIGTVHLHQHEDILAKTFA [DHTKD1]	-0.0401	51.2 °C	51.4 °C	-0.797	-0.271	-0.0218
MASCPDSDNSWVLAGSESLPVETLGPASRMDPESERALQAPHSPSKTDGKELAGTMDGEGTLFQTESPQSGSILTEETEVKGTLEGDVCGVEPPGPGDTVVQGDLQETTVVTGLGPDTQDLEGQSPPQSLPSTPKAAWIREEGRCSSSDDDTDVDMEGLRRRRGREAGPPQPMVPLAVENQAGGEGAGGELGISLNMCLLGALVLLGLGVLLFSGGLSESETGPMEEVERQVLPDPEVLEAVGDRQDGLREQLQAPVPPDSVPSLQNMGLLLDKLAKENQDIRLLQAQLQAQKEELQSLMHQPKGLEEENAQLRGALQQGEAFQRALESELQQLRARLQGLEADCVRGPDGVCLSGGRGPQGDKAIREQGPREQEPELSFLKQKEQLEAEAQALRQELERQRRLLGSVQQDLERSLQDASRGDPAHAGLAELGHRLAQKLQGLENWGQDPGVSANASKAWHQKSHFQNSREWSGKEKWWDGQRDRKAEHWKHKKEESGRERKKNWGGQEDREPAGRWKEGRPRVEESGSKKEGKRQGPKEPPRKSGSFHSSGEKQKQPRWREGTKDSHDPLPSWAELLRPKYRAPQGCSGVDECARQEGLTFFGTELAPVRQQELASLLRTYLARLPWAGQLTKELPLSPAFFGEDGIFRHDRLRFRDFVDALEDSLEEVAVQQTGDDDEVDDFEDFIFSHFFGDKALKKRSGKKDKHSQSPRAAGPREGHSHSHHHHHRG [PBXIP1]	-0.166	55.4 °C	53.7 °C	-1.68	0.474	-0.0444
MASEEASLRALESLMTEFFHDCTTNERKREIEELLNNFAQQIGAWRFCLYFLSSTRNDYVMMYSLTVFENLINKMWLGVPSQDKMEIRSCLPKLLLAHHKTLPYFIRNKLCKVIVDIGRQDWPMFYHDFFTNILQLIQSPVTTPLGLIMLKTTSEELACPREDLSVARKEELRKLLLDQVQTVLGLLTGILETVWDKHSVTAATPPPSPTSGESGDLLSNLLQSPSSAKLLNQPIPILDVESEYICSLALECLAHLFSWIPLSASITPSLLTTIFHFARFGCDIRARKMASVNGSSQNCVSGQERGRLGVLAMSCINELMSKNCVPMEFEEYLLRMFQQTFYLLQKITKDNNAHTVKSRLEELDESYIEKFTDFLRLFVSVHLRRIESYSQFPVVEFLTLLFKYTFHQPTHEGYFSCLDIWTLFLDYLTSKIKSRLGDKEAVLNRYEDALVLLLTEVLNRIQFRYNQAQLEELDDETLDDDQQTEWQRYLRQSLEVVAKVMELLPTHAFSTLFPVLQDNLEVYLGLQQFIVTSGSGHRLNITAENDCRRLHCSLRDLSSLLQAVGRLAEYFIGDVFAARFNDALTVVERLVKVTLYGSQIKLYNIETAVPSVLKPDLIDVHAQSLAALQAYSHWLAQYCSEVHRQNTQQFVTLISTTMDAITPLISTKVQDKLLLSACHLLVSLATTVRPVFLISIPAVQKVFNRITDASALRLVDKAQVLVCRALSNILLLPWPNLPENEQQWPVRSINHASLISALSRDYRNLKPSAVAPQRKMPLDDTKLIIHQTLSVLEDIVENISGESTKSRQICYQSLQESVQVSLALFPAFIHQSDVTDEMLSFFLTLFRGLRVQMGVPFTEQIIQTFLNMFTREQLAESILHEGSTGCRVVEKFLKILQVVVQEPGQVFKPFLPSIIALCMEQVYPIIAERPSPDVKAELFELLFRTLHHNWRYFFKSTVLASVQRGIAEEQMENEPQFSAIMQAFGQSFLQPDIHLFKQNLFYLETLNTKQKLYHKKIFRTAMLFQFVNVLLQVLVHKSHDLLQEEIGIAIYNMASVDFDGFFAAFLPEFLTSCDGVDANQKSVLGRNFKMDRDLPSFTQNVHRLVNDLRYYRLCNDSLPPGTVKL [XPO6]	-0.281	49.6 °C	50 °C	0.528	0.436	-0.202
MASEKPLAAVTCTAPVNIAVIKYWGKRDEELVLPINSSLSVTLHQDQLKTTTTAVISKDFTEDRIWLNGREEDVGQPRLQACLREIRCLARKRRNSRDGDPLPSSLSCKVHVASVNNFPTAAGLASSAAGYACLAYTLARVYGVESDLSEVARRGSGSACRSLYGGFVEWQMGEQADGKDSIARQVAPESHWPELRVLILVVSAEKKLTGSTVGMRASVETSPLLRFRAESVVPARMAEMARCIRERDFPSFAQLTMKDSNQFHATCLDTFPPISYLNAISWRIIHLVHRFNAHHGDTKVAYTFDAGPNAVIFTLDDTVAEFVAAVWHGFPPGSNGDTFLKGLQVRPAPLSAELQAALAMEPTPGGVKYIIVTQVGPGPQILDDPCAHLLGPDGLPKPAA [MVD]	0.321	52.6 °C	52.6 °C	-0.632	-0.962	-0.138
MASGAGGVGGGGGGKIRTRRCHQGPIKPYQQGRQQHQGILSRVTESVKNIVPGWLQRYFNKNEDVCSCSTDTSEVPRWPENKEDHLVYADEESSNITDGRITPEPAVSNTEEPSTTSTASNYPDVLTRPSLHRSHLNFSMLESPALHCQPSTSSAFPIGSSGFSLVKEIKDSTSQHDDDNISTTSGFSSRASDKDITVSKNTSLPPLWSPEAERSHSLSQHTATSSKKPAFNLSAFGTLSPSLGNSSILKTSQLGDSPFYPGKTTYGGAAAAVRQSKLRNTPYQAPVRRQMKAKQLSAQSYGVTSSTARRILQSLEKMSSPLADAKRIPSIVSSPLNSPLDRSGIDITDFQAKREKVDSQYPPVQRLMTPKPVSIATNRSVYFKPSLTPSGEFRKTNQRIDNKCSTGYEKNMTPGQNREQRESGFSYPNFSLPAANGLSSGVGGGGGKMRRERTRFVASKPLEEEEMEVPVLPKISLPITSSSLPTFNFSSPEITTSSPSPINSSQALTNKVQMTSPSSTGSPMFKFSSPIVKSTEANVLPPSSIGFTFSVPVAKTAELSGSSSTLEPIISSSAHHVTTVNSTNCKKTPPEDCEGPFRPAEILKEGSVLDILKSPGFASPKIDSVAAQPTATSPVVYTRPAISSFSSSGIGFGESLKAGSSWQCDTCLLQNKVTDNKCIACQAAKLSPRDTAKQTGIETPNKSGKTTLSASGTGFGDKFKPVIGTWDCDTCLVQNKPEAIKCVACETPKPGTCVKRALTLTVVSESAETMTASSSSCTVTTGTLGFGDKFKRPIGSWECSVCCVSNNAEDNKCVSCMSEKPGSSVPASSSSTVPVSLPSGGSLGLEKFKKPEGSWDCELCLVQNKADSTKCLACESAKPGTKSGFKGFDTSSSSSNSAASSSFKFGVSSSSSGPSQTLTSTGNFKFGDQGGFKIGVSSDSGSINPMSEGFKFSKPIGDFKFGVSSESKPEEVKKDSKNDNFKFGLSSGLSNPVSLTPFQFGVSNLGQEEKKEELPKSSSAGFSFGTGVINSTPAPANTIVTSENKSSFNLGTIETKSASVAPFTCKTSEAKKEEMPATKGGFSFGNVEPASLPSASVFVLGRTEEKQQEPVTSTSLVFGKKADNEEPKCQPVFSFGNSEQTKDENSSKSTFSFSMTKPSEKESEQPAKATFAFGAQTSTTADQGAAKPVFSFLNNSSSSSSTPATSAGGGIFGSSTSSSNPPVATFVFGQSSNPVSSSAFGNTAESSTSQSLLFSQDSKLATTSSTGTAVTPFVFGPGASSNNTTTSGFGFGATTTSSSAGSSFVFGTGPSAPSASPAFGANQTPTFGQSQGASQPNPPGFGSISSSTALFPTGSQPAPPTFGTVSSSSQPPVFGQQPSQSAFGSGTTPNSSSAFQFGSSTTNFNFTNNSPSGVFTFGANSSTPAASAQPSGSGGFPFNQSPAAFTVGSNGKNVFSSSGTSFSGRKIKTAVRRRK [NUP153]	-0.682	52.8 °C	52.6 °C	-5.41	-3.58	0.507
